Reference: patent US20220073907A1, “TAGLESS ENCODED CHEMICAL LIBRARY” (NANNA THERAPEUTICS LIMITED, priority 2016, published 2022)

B1: RNase A: enzyme which cleaves its associated RNA linker in a scarless manner; stock 10 mg/ml (protein, UniProt P61823 27-150, looked up)
Ribonuclease pancreatic: KETAAAKFERQHMDSSTSAASSSNYCNQMMKSRNLTKDRCKPVNTFVHESLADVQAVCSQKNVACKNGQTNCYQSYSTMSITDCRETGSSKYPNCAYKTTQANKHIIVACEGNPYVPVHFDASV
B2: RNase T1: enzyme which cleaves its associated linker in a scarless manner; stock 10 mg/ml (protein, UniProt P00651 27-130, looked up)
Guanyl-specific ribonuclease …: ACDYTCGSNCYSSSDVSTAQAAGYQLHEDGETVGSNSYPHKYNNYEGFDFSVSSPYYEWPILSSGDVYSGGSPGADRVVFNENNQLAGVITHTGASGNNFVECT

Legend:
[1] = test system: cleavable oligonucleotide; assay: Enzymatic release of BHQ-1 quencher from FITC-labelled cleavable oligonucleotide, denaturing gel; format: biochemical; conditions: 10-fold serial dilutions of stock enzyme from 10^−2 to 10^−5 in 10 mM Tris-HCl pH 7.5, 1 mM EDTA; 150 nM cleavable oligonucleotide
From the text: Referring now to FIG. 4, to show cleavage of the linker and release of the pharmacore oligonucleotides were made which incorporated a fluorophore (FITC, shown as F in FIG. 4) 5′ to the cleavable linker within the sequence of the cleavable oligonucleotide. A quencher molecule, BHQ-1, was then attached to the cleavable linker. This can be released by cleavage in the same manner as any chemical structure used in library generation. Light up of the oligonucleotide is seen when the quencher is removed from the cleavable linker.
Three different enzymes have been identified which cleave their associated linkers in a scarless manner (RNase A, RNase T1 A and RNase 1 A; labelled as enzymes A, B and C respectively in FIG. 4). All 3 were tested with their compatriot linkers. In each case 10 μl reactions were set up; 10 mM Tris-HCl, 1 mM EDTA, 150 nM cleavable oligonucleotide 0.1 μl of stock enzyme (RNase A=10 mg/ml, RNase T1=10 mg/ml RNase 1=1.5 mg/ml) then to 10 μl with nuclease free water. Samples were incubated for 15 minutes at 37° C. and then 10 μL denaturing loading dye added (95% formamide, 0.1% xylene cyanole, 0.1% Bromophenol Blue, 20 mM Tris-HCl pH 7.5). Samples were boiled for 2 minutes at 95° C. and then rapidly cooled to 4° C. at 4° C./s. These samples were then loaded onto a denaturing TBE-gel (12.5% polyacrylamide, 7M Urea). The gel was run at 150V for 75 minutes and the imaged using a Syngene Ingenius3 system exciting the FITC. Release of the quencher means the fluorophore can be seen and imaged as ‘light up’. This is seen as appearance of yellow DNA band in the presence of enzyme. By staining with SyBr gold (Thermo) DNA can be seen and this is again quenched when quencher is present but the size shift corresponding to the change in mass can be seen as well as increased signal (grey scale image below fluorophore, FIG. 4). In both cases we can see release only occurs in the presence of the enzymes and is rapid (<15 minutes). […]

[2] = test system: cleavable oligonucleotide; assay: Enzymatic release of payload from cleavable linker in 100 μm aqueous droplets; format: biochemical; conditions: 10 μl stock RNase A (10 mg/ml) per 1 ml aqueous phase, 37° C. for 15 minutes, 100 μm droplets
Experimental: We also confirmed that the enzymes function in the droplet environment (see FIG. 5). Results are shown for RNase A. 1 ml of aqueous phase was set up using 10 mM Tris-HCl, 1 mM EDTA, 150 nM cleavable oligonucleotide 10 μl of stock RNase A (10 mg/ml) then to 1 ml with nuclease free water. Droplets of […] mean diameter were made using a 100 μm etch depth chip with the aqueous phase as described above and the oil phase comprising of PSF-2 cST oil (Clearco Products Inc.) with 2% w/v Gransurf G67 (Grant Industries Inc.) Droplets were incubated with and without enzyme at 37° C. for 15 minutes and them imaged under a Floid fluorescence microscope illuminating at 482/18 nm and emission filters of 532/59 nm.

[3] = test system: Jurkat cells; assay: Effect of RNaseA in the cell mixture on cellular growth; format: cell-based; conditions: 0.1 μg/ml in the cell mixture
From the text: DNA guides assembly of monomers—were synthesised using conventional chemistry the RNA tags were synthesised in advance by IDT. The last 3 nucleotides contain phosphorothioate linkages to prevent cleavage by exonucleases. Individual reagents are then tagged with a guide to a specific RNA specific to a unique sequence incorporated into the guide oligonucleotide (100 unique monomers can be assembled, assuming up to 4 guide sequences into over 100,000,000 unique compounds). […] 1) Beads are packed into a column (each bead is clonal with a unique DNA sequence to guide assembly but μM concentrations of this clonal guide on each bead) and at 20 μM 200 million can be present per ml of bead volume. 2) A pool of monomers and appropriate reagents are then washed onto the column and reactions allowed to proceed, the column can be washed and new reaction chemistry added as needed (note fresh monomers can also be added). 3) Chemical synthesis varies with monomers used (see example 2, section 4). 4) Finally the beads are washed with 10 column volumes of TE with 100 mM NaCl and then 2 column volumes of appropriate media for growth of cells in the phenotypic screen e.g. RPMI. 5) Beads are then collected in the growth media and ready for encapsulation with target cells. […]

[4] = test system: RNA guides; assay: RNaseA cleavage of RNA guides in growth media; format: biochemical

| Molecule | dilution of the enzyme at which activity is seen [1] | light up (quencher release) in droplets [2] | effect on cellular growth [3] | duration of enzyme activity in growth media ([4]; 0.1 μg/ml, growth media tested) | time for cleavage of RNA guides ([4]; in RPMI, lysogeny broth, tryptic soy broth and DMEM) [min] |
| --- | --- | --- | --- | --- | --- |
| RNase 1: enzyme which cleaves its associated linker in a scarless manner; stock 1.5 mg/ml | 10^−3 |  |  |  |  |
| B1 | 10^−4 | light up occurs in droplets in the presence of enzyme | doesn't affect cellular growth | at least 48 h | 15 to 20 |
| B2 | 10^−3 |  |  |  |  |
